Measured values as given in the supplement of paper PMC10724198.
± gives the standard deviation of the averaged measurements.

Legend:
[1] = test system: Saccharomyces cerevisiae; test: protein stability index of tFT-peptide fusion (C-terminal peptide) (PSI (0-1 scale)); higher = more stable (slower turnover)
Procedure: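 MPS profiling in S. cerevisiae of the tFT-X12 degron library: putative degron peptides plus stable controls, 12 aa, fused to the C-terminus of a sfGFP-mCherry timer. Cells are FACS-sorted into 8 mCherry/sfGFP bins and deep-sequenced. PSI runs from 0 (unstable) to 1 (stable). Backgrounds are wild type, das1Δ and doa10Δ at 30 °C, and wild type, das1Δ, cdc34-1 and cdc53-1 at 37 °C; 2-3 technical replicates each.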

[2] = test system: Saccharomyces cerevisiae; test: as above; conditions: genetic background: wild type; temperature: 30 C
[3] = genetic background: cdc34-1, temperature: 37 C
[4] = genetic background: cdc53-1, temperature: 37 C
[5] = genetic background: das1 deletion, temperature: 30 C
[6] = genetic background: das1 deletion, temperature: 37 C
[7] = genetic background: doa10 deletion, temperature: 30 C
[8] = genetic background: wild type, temperature: 30 C
[9] = genetic background: wild type, temperature: 37 C
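Also: PSI is a weighted mean of sequencing reads over stability bins, variants kept only with over 10 reads, mCherry proximal and sfGFP distal, peptide attached via GGGS linker.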

Sequence	protein stability index [1, 3]	protein stability index [1, 4]	protein stability index [1, 5]	protein stability index [1, 6]	protein stability index [1, 7]	protein stability index [1, 8]	protein stability index [1, 9]	protein stability index [2]
VGVLWALIVGVR	0.167 ± 0.011	0.226 ± 0.02	0.191 ± 0.035	0.36 ± 0.0087	0.159 ± 0.0094	0.18 ± 0.012	0.289 ± 0.043	0.251 ± 0.035
VGVYVWRGVLWA	0.277 ± 0.025	0.402 ± 0.035	0.257 ± 0.024	0.444 ± 0.0077	0.184 ± 0.0022	0.218 ± 0.028	0.397 ± 0.024	0.296 ± 0.044
VHHAFLPYTLVR	0.502 ± 0.021	0.57 ± 0.011	0.375 ± 0.028	0.591 ± 0.017	0.361 ± 0.011	0.407 ± 0.019	0.5709 ± 0.0043	0.485 ± 0.01
VHNIDLFVVCYI	0.433 ± 0.025	0.443 ± 0.014	0.251 ± 0.047	0.482 ± 0.0094	0.222 ± 0.0048	0.258 ± 0.027	0.451 ± 0.015	0.346 ± 0.0067
VIAFFSVLKRYV	0.641 ± 0.0088	0.704 ± 0.011	0.58 ± 0.037	0.712 ± 0.0078	0.199 ± 0.0083	0.241 ± 0.0073	0.465 ± 0.0052	0.421 ± 0.016
VKSAVLLFFLVT	0.357 ± 0.0084	0.483 ± 0.019	0.359 ± 0.031	0.537 ± 0.0055	0.178 ± 0.016	0.199 ± 0.021	0.312 ± 0.01	0.257 ± 0.0044
VLFFLVTSSVYF	0.124 ± 0.036	0.263 ± 0.03	0.201 ± 0.031	0.37 ± 0.0049	0.159 ± 0.0068	0.187 ± 0.0095	0.327 ± 0.0083	0.269 ± 0.04
VLPCSLVPLRLH	0.66 ± 0.015	0.704 ± 0.029	0.642 ± 0.012	0.702 ± 0.011	0.349 ± 0.013	0.374 ± 0.026	0.548 ± 0.0098	0.445 ± 0.014
VLPLRCSWAAQG	0.693 ± 0.007	0.7521 ± 0.005	0.639 ± 0.026	0.747 ± 0.027	0.246 ± 0.019	0.298 ± 0.013	0.538 ± 0.044	0.39 ± 0.035
VMLIRVSRGIKC	0.359 ± 0.044	0.463 ± 0.13	0.293 ± 0.024	0.4846 ± 0.0047	0.242 ± 0.0097	0.29 ± 0.038	0.473 ± 0.0067	0.41 ± 0.0097
VMLVISRLLLLF	0.465 ± 0.058	0.523 ± 0.0094	0.455 ± 0.033	0.613 ± 0.018	0.111 ± 0.0019	0.105 ± 0.017	0.168 ± 0.018	0.174 ± 0.021
VPGPSPPRFTQR	0.7134 ± 0.0016	0.762 ± 0.016	0.6584 ± 0.0019	0.741 ± 0.0094	0.644 ± 0.028	0.656 ± 0.011	0.692 ± 0.025	0.559 ± 0.1
VPVWHTVKLYCF	0.342 ± 0.0081	0.439 ± 0.0077	0.345 ± 0.038	0.4934 ± 0.0021	0.073 ± 0.00079	0.088 ± 0.017	0.0851 ± 0.018	0.159 ± 0.061
VPWSKIAARLII	0.6593 ± 0.0029	0.706 ± 0.011	0.618 ± 0.02	0.734 ± 0.022	0.227 ± 0.015	0.315 ± 0.054	0.5015 ± 0.0036	0.446 ± 0.068
VRMMYSVQVWCG	0.0466 ± 0.011	0.138 ± 0.03	0.0633 ± 0.029	0.165 ± 0.012	0.02927 ± 0.00015	0.0222 ± 0.0046	0.0439 ± 0.0023	0.0363 ± 0.036
VRVWLLACASKG	0.3332 ± 0.00082	0.423 ± 0.026	0.236 ± 0.0066	0.378 ± 0.019	0.228 ± 0.037	0.24 ± 0.015	0.3609 ± 0.0016	0.281 ± 0.014
VSDLYLSLVRVV	0.59 ± 0.032	0.593 ± 0.011	0.46 ± 0.034	0.604 ± 0.009	0.256 ± 0.0031	0.31 ± 0.029	0.492 ± 0.017	0.45 ± 0.078
VSGVLRSMVRLQ	0.641 ± 0.044	0.7477 ± 0.0057	0.66 ± 0.034	0.736 ± 0.032	0.266 ± 0.017	0.324 ± 0.031	0.58 ± 0.03	0.453 ± 0.011
VSRAVCLWRRLL	0.479 ± 0.006	0.68 ± 0.061	0.618 ± 0.0096	0.7305 ± 0.0018	0.0796 ± 0.0058	0.104 ± 0.036	0.124 ± 0.026	0.0882 ± 0.088
VSSFLLPFCLLF	0.65 ± 0.025	0.689 ± 0.029	0.645 ± 0.0076	0.714 ± 0.025	0.654 ± 0.021	0.641 ± 0.016	0.6753 ± 0.0013	0.51 ± 0.1

Sequence	protein stability index [1, 3]	protein stability index [1, 4]	protein stability index [1, 5]	protein stability index [1, 6]	protein stability index [1, 7]	protein stability index [1, 8]	protein stability index [1, 9]	protein stability index [2]
VSWSVSALIYLK	0.169 ± 0.017	0.1 ± 0.026	0.233 ± 0.039	0.319 ± 0.014	0.572 ± 0.01	0.277 ± 0.034	0.295 ± 0.015	0.35 ± 0.0075
VTLLCRFFMLVF	0.454 ± 0.01	0.5149 ± 0.00071	0.402 ± 0.025	0.543 ± 0.01	0.273 ± 0.014	0.289 ± 0.014	0.428 ± 0.017	0.369 ± 0.021
VVGFVFSCWWSW	0.433 ± 0.031	0.4646 ± 0.00097	0.367 ± 0.039	0.506 ± 0.013	0.365 ± 0.015	0.372 ± 0.045	0.46 ± 0.014	0.5003 ± 0.0031
VVGVLLLYLNPF	0.431 ± 0.0048	0.5071 ± 0.0037	0.351 ± 0.025	0.572 ± 0.023	0.3188 ± 0.0024	0.336 ± 0.039	0.525 ± 0.0095	0.4677 ± 0.0038
VVLWWWVVARDL	0.414 ± 0.019	0.495 ± 0.038	0.402 ± 0.03	0.551 ± 0.031	0.332 ± 0.026	0.339 ± 0.03	0.514 ± 0.01	0.44 ± 0.028
VVRLRVWRLLKV	0.267 ± 0.022	0.33 ± 0.048	0.253 ± 0.03	0.42491 ± 4.8e-05	0.101 ± 0.034	0.161 ± 0.026	0.185 ± 0.016	0.225 ± 0.023
VVRSIVVYTCVF	0.3284 ± 0.0017	0.365 ± 0.041	0.262 ± 0.026	0.4241 ± 0.0025	0.219 ± 0.0039	0.253 ± 0.02	0.405 ± 0.0074	0.352 ± 0.021
VVRVIWCQFSCF	0.494 ± 0.036	0.545 ± 0.016	0.414 ± 0.026	0.595 ± 0.017	0.208 ± 0.0071	0.234 ± 0.022	0.434 ± 0.027	0.334 ± 0.0057
VVTLHISLFYPG	0.447 ± 0.033	0.511 ± 0.018	0.406 ± 0.031	0.5 ± 0.0056	0.418 ± 0.06	0.415 ± 0.029	0.461 ± 0.019	0.479 ± 0.023
VVVRARVFFHIF	0.285 ± 0.012	0.444 ± 0.015	0.361 ± 0.022	0.538 ± 0.006	0.0651 ± 0.0018	0.0583 ± 0.025	0.07 ± 0.014	0.0561 ± 0.048
VVWLFGVSWCWL	0.429 ± 0.018	0.5093 ± 0.0025	0.355 ± 0.022	0.525 ± 0.006	0.313 ± 0.011	0.34 ± 0.03	0.518 ± 0.015	0.419 ± 0.0056
VWACWCGWVLLM	0.319 ± 0.038	0.388 ± 0.024	0.314 ± 0.027	0.4667 ± 0.0039	0.153 ± 0.0066	0.15 ± 0.019	0.195 ± 0.0032	0.235 ± 0.072
VWLFCLSRLYLL	0.298 ± 0.039	0.383 ± 0.007	0.38 ± 0.03	0.4939 ± 0.0043	0.143 ± 0.015	0.101 ± 0.023	0.114 ± 0.011	0.206 ± 0.052
VYCQRFMLLFTP	0.527 ± 0.059	0.535 ± 0.019	0.459 ± 0.03	0.581 ± 0.021	0.553 ± 0.011	0.433 ± 0.0094	0.55 ± 0.0071	0.4872 ± 0.0007
VYGSLPVVVCRI	0.534 ± 0.059	0.538 ± 0.013	0.409 ± 0.023	0.56 ± 0.016	0.4 ± 0.022	0.413 ± 0.011	0.539 ± 0.011	0.525 ± 0.065
VYIVLLLLFLRP	0.356 ± 0.0046	0.378 ± 0.013	0.317 ± 0.031	0.407 ± 0.021	0.3194 ± 0.003	0.319 ± 0.015	0.3951 ± 0.0015	0.308 ± 0.031
VYLVLRCGSVLV	0.565 ± 0.015	0.56 ± 0.032	0.406 ± 0.021	0.597 ± 0.011	0.379 ± 0.018	0.399 ± 0.016	0.586 ± 0.02	0.443 ± 0.054
VYVLVFNMENIS	0.5603 ± 0.0009	0.588 ± 0.0096	0.382 ± 0.03	0.616 ± 0.011	0.382 ± 0.0068	0.401 ± 0.033	0.585 ± 0.036	0.4891 ± 0.0047
VYVSRTRPFSLY	0.682 ± 0.052	0.7141 ± 0.0054	0.63 ± 0.011	0.728 ± 0.022	0.33 ± 0.0094	0.3687 ± 0.0034	0.573 ± 0.007	0.428 ± 0.031
